Legend:
[1] = target: T1, anti-mCD19 IgG (clone 1D3); assay: ELISA, titration with anti-mCD19 (1D3) IgG, OD(450nm); value printed beside the circle curve
T1 construct: Anti-mouse CD19 IgG; also called 1D3 IgG; biotinylated 1D3 antibody

FMC63 IgG [2] = target: T2, FMC63 IgG; assay: flow cytometry (MFI), yeast clone titrated with 0.01-1000 nM biotinylated FMC63 IgG
T2 construct: biotinylated in the flow cytometry assays; also called FMC63 IgG antibody; biotinylated FMC63 IgG
Text: (§1) In order to validate specific sequences, clones were isolated and measured for their affinity to FMC63. Specifically, a subset of mimotope clones were selected from the fixed library sequence described in Example 5.

FMC63 scFv = target: T3, FMC63 scFv (biotinylated); assay: flow cytometry of yeast clones, titration with biotinylated FMC63 scFv and streptavidin-PE, MFI (geometric mean)
T3 construct: also called biotinylated FMC63 scFv; FMC63-scFv monomer
T3 sequence (scFv, as listed by the source): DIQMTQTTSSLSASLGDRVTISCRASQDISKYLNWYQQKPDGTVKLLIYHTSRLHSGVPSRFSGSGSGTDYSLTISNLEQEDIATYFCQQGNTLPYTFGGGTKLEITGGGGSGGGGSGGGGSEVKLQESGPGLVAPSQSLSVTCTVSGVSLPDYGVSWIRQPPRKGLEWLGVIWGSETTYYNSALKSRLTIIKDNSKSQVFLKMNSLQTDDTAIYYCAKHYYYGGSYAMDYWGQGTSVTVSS
Procedure: The binding affinity of the isolated yeast clones to FMC63 was determined.

FMC63 IgG [3] = target: T2, FMC63 IgG; assay: flow cytometry (MFI), yeast clone titrated with 0.01-1000 nM biotinylated FMC63 IgG; yeast-displayed clone, FACS titration 0.01-1000 nM biotinylated FMC63 IgG
Text: as §1

FMC63 IgG [4] = target: T2, FMC63 IgG; assay: flow cytometry of yeast clones stained with 5 µM FMC63 IgG, alanine scan
Procedure: (§2) To determine the effect of amino acid position on binding to FMC63, an alanine mutagenesis experiment was performed were each amino acid was mutated to alanine and binding to FMC63 was assessed. Specifically, a representative mimotope, […] To assess the tolerance of additional alanine residues, one alanine or two alanine residues were inserted between the two cysteine residues (SEQ ID NOs: 52 and 53) to determine the impact the loop structure had on mimotope binding to FMC63. To generate mutations, two complementary oligos with the codon replaced at the desired site were denatured at 95° C. and annealed by slow cooling to 25° C. (decreasing by 0.5° C./second). The annealed oligos were treated with T4 PNK (T4 Polynucleotide Kinase) to add a terminal phosphate, and then ligated into digested pCT-CON2 vector. Positive clones having the correct oligo inserted were tested and transformed into competent EBY100 yeast cells. Following generation of mutated clones, flow cytometry was performed by staining the yeast with 5 μM FMC63 IgG antibody to measure binding of the mimotope (FIG. 11).

FMC63 IgG [5] = target: T2, FMC63 IgG; assay: flow cytometry of yeast clones, titration with 0.01-1000 nM biotinylated FMC63 IgG, MFI (geometric mean)
Text: as §1

FMC63 IgG [6] = target: T2, FMC63 IgG; assay: flow cytometry of yeast clones stained with 5 µM FMC63 IgG, tolerance of extra alanine residues
Procedure: as §2

[7] = target: T1, anti-mCD19 IgG (clone 1D3); assay: ELISA, titration with anti-mCD19 (1D3) IgG, OD(450nm); value printed beside the triangle curve
FMC63 IgG [8] = target: T2, FMC63 IgG; assay: ELISA with FMC63 IgG; ELISA, not FACS titration
Procedure: Next, the affinity of the […] (SEQ ID NO: 5) mimotope to FMC63 was determined.

[9] = target: T1, anti-mCD19 IgG (clone 1D3); assay: ELISA, titration with anti-mCD19 (1D3) IgG, OD(450nm); value printed beside the square curve

T1 sequence (VH, as listed by the source, chain 1 of 2): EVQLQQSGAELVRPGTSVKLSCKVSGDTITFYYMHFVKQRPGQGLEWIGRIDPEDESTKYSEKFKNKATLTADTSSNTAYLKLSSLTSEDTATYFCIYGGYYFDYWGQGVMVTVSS
T1 sequence (VL, as listed by the source, chain 2 of 2): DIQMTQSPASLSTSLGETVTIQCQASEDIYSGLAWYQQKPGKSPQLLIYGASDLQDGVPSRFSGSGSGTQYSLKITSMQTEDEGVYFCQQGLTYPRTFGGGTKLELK
T2 sequence (VH, as listed by the source, chain 1 of 2): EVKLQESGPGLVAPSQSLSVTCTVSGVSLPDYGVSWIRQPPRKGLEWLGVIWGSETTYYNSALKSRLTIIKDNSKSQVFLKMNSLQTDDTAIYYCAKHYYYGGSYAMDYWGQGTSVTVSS
T2 sequence (VL, as listed by the source, chain 2 of 2): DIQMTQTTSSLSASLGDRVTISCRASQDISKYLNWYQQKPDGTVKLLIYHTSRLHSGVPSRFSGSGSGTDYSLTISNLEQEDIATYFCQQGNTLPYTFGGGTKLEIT

Binder: SKLKGKSGPE (also called 10 amino acid mimotope) [1D3 mimotope H1 (SKLKGKSGPE) as used in the ELISA of FIG. 13]
- Kd [1]: 190 nM

Binder: RICPWSCRAP [FMC63 Mimotope (D12), yeast-displayed]
- Kd (FMC63 IgG [2]): > 1000 nM

Binder: RICPWNCKEL (also called F12 mimotope) [FMC63 Mimotope(F12), yeast-displayed]
- EC50 (read off the curve) (FMC63 scFv): ~40 nM

Binder: RHCPWNCSLL [FMC63 Mimotope (A1), yeast-displayed]
- Kd (FMC63 IgG [3]): > 1000 nM

Binder: RICPWNCKELPSPPRIFGNR [K-C2 mimotope, yeast-displayed]
- EC50 (read off the curve) (FMC63 scFv): ~10 nM

Binder: ALCPWSCREL (also called alanine at R1 (position 1))
- binding result (FMC63 IgG [4]): no binding (tested: 5 µM)

Binder: RLCPWSAREL (also called alanine at C7 (position 7))
- binding result (FMC63 IgG [4]): no binding (tested: 5 µM)

Binder: RICPWACVEL [FMC63 Mimotope(H8), yeast-displayed]
- EC50 (read off the curve) (FMC63 IgG [5]): ~8 nM

Binder: RLCPWDCREL [FMC63 Mimotope(F8), yeast-displayed]
- EC50 (read off the curve) (FMC63 IgG [5]): ~10 nM

Binder: RLAPWSCREL (also called alanine at C3 (position 3))
- binding result (FMC63 IgG [4]): no binding (tested: 5 µM)

Binder: RLCAWSCREL (also called alanine at P4 (position 4))
- binding result (FMC63 IgG [4]): no binding (tested: 5 µM)

Binder: RLCPASCREL (also called alanine at W5 (position 5))
- binding result (FMC63 IgG [4]): no binding (tested: 5 µM)

B1: FMC63 Mimotope Mutant RLCPWSAACREL (SEQ ID NO: 52), yeast-displayed (peptide)
peptide: RLCPWSAACREL
notes: also called two alanine residues inserted between the two cysteine residues
- binding result (FMC63 IgG [6]): no binding (tested: 5 µM)

B2: FMC63 Mimotope Mutant RLCPWSACREL (SEQ ID NO: 53), yeast-displayed (peptide)
peptide: RLCPWSACREL
notes: also called one alanine inserted between the two cysteine residues
- binding result (FMC63 IgG [6]): no binding (tested: 5 µM)

B3: 1D3 Mimotope Multimer H1 + E2 (SKLKGKSGPEIRVLMSRVFA) (peptide)
peptide: SKLKGKSGPEIRVLMSRVFA
notes: Chemically synthesized 20 amino acid fusion of two mimotopes; also called fusion mimotope
- Kd [7]: 6.7 nM

Binder: RHCPWNCSLL [high-affinity mimotope RHCPWNCSLL (SEQ ID NO: 5) as used in the ELISA of FIG. 7]
- Kd (FMC63 IgG [8]): ~1400 nM

B4: 1D3 Mimotope Multimer H1 + C11 (SKLKGKSGPEFHWFINVPPF) (peptide)
peptide: SKLKGKSGPEFHWFINVPPF
notes: as for B3
- Kd [9]: 102 nM

Source: patent publication US20210340524A1 (MIT, published 2021)
